Residue numbers refer to the chain shown, from its start. Blank lines part the entries; values can stand above or below the binder they belong to.
How the values were obtained:
[1] = biological target: T1, human BCMA on BCMA expressing cell lines (human, UniProt Q02223 1-184); assay: cell-based or functional assay
T1 sequence: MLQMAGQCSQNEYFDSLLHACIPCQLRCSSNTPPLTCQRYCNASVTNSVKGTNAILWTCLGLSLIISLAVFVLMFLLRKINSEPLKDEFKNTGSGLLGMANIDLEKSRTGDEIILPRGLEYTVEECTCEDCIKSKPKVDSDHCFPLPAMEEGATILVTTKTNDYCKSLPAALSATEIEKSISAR

[2] = biological target: T2, human BCMA protein (human, UniProt Q02223 1-54, limits assumed); assay: affinity to human BCMA protein, method not stated
T2 sequence: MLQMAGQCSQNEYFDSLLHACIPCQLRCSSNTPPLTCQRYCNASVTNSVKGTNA

TDCC EC50 (EJM cells) [1]: 1.33 pM
Kd [2]: 6520 pM
B1: BCMA targeting trispecific protein 01C01 (other, not shown: large carriers; small tags and cut ends)
VHH: EVQLVESGGGLVQPGRSLTLSCAASTNIVSISPMGWYRQAPGKQRELVAAIHGHSTLYADSVKGRFTISRDNAKNSIYLQMNSLRPEDTALYYCNKVPWGDYHPGNVYWGQGTQVTVSS
notes: trispecific

TDCC EC50 (EJM cells) [1]: 19.6 pM
Kd [2]: 19300 pM
B2: BCMA targeting trispecific protein 01D07 (other, not shown: large carriers; small tags and cut ends)
VHH: B1 VHH with V29F, I31A, H54S, G105R, Y108N
notes: trispecific

TDCC EC50 (EJM cells) [1]: 1 pM
B3: BCMA targeting trispecific protein 01H06 (other, not shown: large carriers; small tags and cut ends)
VHH: B1 VHH with N27S, I28D, V29F, H54F, S55E

TDCC EC50 (EJM cells) [1]: 3.77 pM
Kd [2]: 8910 pM
B4: BCMA targeting trispecific protein 01E06 (other, not shown: large carriers; small tags and cut ends)
VHH: B1 VHH with V29F, I31L, H54D, G105R
notes: trispecific

TDCC EC50 (EJM cells) [1]: 159 pM
Kd [2]: 37500 pM
B5: BCMA targeting trispecific protein 01A04 (other, not shown: large carriers; small tags and cut ends)
VHH: B1 VHH with V29F, S30M, H54D, D101R, G105R
notes: trispecific

TDCC EC50 (EJM cells) [1]: 15.1 pM
Kd [2]: 17000 pM
B6: BCMA targeting trispecific protein 01A05 (other)
VHH: B1 VHH with V29F, I31S, H54F, G105R
notes: trispecific; not shown: anti-albumin domain, anti-CD3 domain and the linkers of the trispecific (TriTAC) format

TDCC EC50 (EJM cells) [1]: 174 pM
Kd [2]: 43900 pM
B7: BCMA targeting trispecific protein 01B07 (other, not shown: large carriers; small tags and cut ends)
VHH: B1 VHH with V29F, I31R, H54N, D101I, G105R
notes: trispecific

TDCC EC50 (EJM cells) [1]: 5.27 pM
Kd [2]: 11200 pM
B8: BCMA targeting trispecific protein 01B09 (other, not shown: large carriers; small tags and cut ends)
VHH: B1 VHH with T26S, V29F, H54S
notes: trispecific

TDCC EC50 (EJM cells) [1]: 945 pM
Kd [2]: 52800 pM
B9: BCMA targeting trispecific protein 01F09 (other)
VHH: B1 VHH with V29S, D101R, G105R
notes: trispecific; not shown: anti-albumin domain, anti-CD3 domain and the linkers of the trispecific; the C-terminal His6 that follows them is left out

TDCC EC50 (EJM cells) [1]: 45.7 pM
Kd [2]: 28300 pM
B10: BCMA targeting trispecific protein 01C08 (other, not shown: large carriers; small tags and cut ends)
VHH: B1 VHH with V29F, I31N, H54G, G105R, Y108H
notes: trispecific

TDCC EC50 (EJM cells) [1]: 3.01 pM
Kd [2]: 6520 pM
B11: BCMA targeting trispecific protein 01B05 (other, not shown: large carriers; small tags and cut ends)
VHH: B1 VHH with V29T, H54F, S55E
notes: trispecific

TDCC EC50 (EJM cells) [1]: 13.5 pM
Kd [2]: 14900 pM
B12: BCMA targeting trispecific protein 01D06 (other)
VHH: B1 VHH with V29F, I31R, H54D, G105R, Y108T
notes: as for B6

TDCC EC50 (EJM cells) [1]: 2.98 pM
Kd [2]: 6360 pM
B13: BCMA targeting trispecific protein 01E03 (other, not shown: large carriers; small tags and cut ends)
VHH: B1 VHH with V29T, H54D
notes: trispecific

TDCC EC50 (EJM cells) [1]: 1.5 pM
Kd [2]: 5560 pM
B14: BCMA targeting trispecific protein 01E08 (other, not shown: large carriers; small tags and cut ends)
VHH: B1 VHH with V29F, I31Q, H54D, Y108C
notes: trispecific

TDCC EC50 (EJM cells) [1]: 16 pM
Kd [2]: 18900 pM
B15: BCMA targeting trispecific protein 01D04 (other)
VHH: B1 VHH with V29T, H54V, G105R, Y108Q
notes: trispecific; not shown: anti-albumin domain, anti-CD3 domain and the linkers of the trispecific (TriTAC) chain; the C-terminal 6xHis tag follows these missing domains and is left out

TDCC EC50 (EJM cells) [1]: 37.2 pM
Kd [2]: 16700 pM
B16: BCMA targeting trispecific protein 01F05 (other)
VHH: B1 VHH with V29F, I31S, H54F, L57W, D101R, G105R
notes: trispecific; not shown: The C-terminal 6xHis tag is left out because it follows these missing domains

TDCC EC50 (EJM cells) [1]: 76.4 pM
Kd [2]: 15000 pM
B17: BCMA targeting trispecific protein 01F03 (other)
VHH: B1 VHH with V29F, I31E, H54N, D101T, G105R
notes: trispecific; not shown: the C-terminal 6xHis tag follows those domains and is left out

TDCC EC50 (EJM cells) [1]: 453 pM
Kd [2]: 53900 pM
B18: BCMA targeting trispecific protein 01D10 (other)
VHH: B1 VHH with V29F, I31A, H54S, D101R, G105R
notes: as for B9

TDCC EC50 (EJM cells) [1]: 2.21 pM
Kd [2]: 6550 pM
B19: BCMA targeting trispecific protein 01F04 (other)
VHH: B1 VHH with V29D, H54F, S55Q
notes: trispecific; not shown: the C-terminal His6 follows those missing domains and is left out

TDCC EC50 (EJM cells) [1]: 3.07 pM
Kd [2]: 6090 pM
B20: BCMA targeting trispecific protein 01C05 (other, not shown: large carriers; small tags and cut ends)
VHH: B1 VHH with V29F, I31S, H54F, S55K, L91R
notes: trispecific

TDCC EC50 (EJM cells) [1]: 16.1 pM
Kd [2]: 18600 pM
B21: BCMA targeting trispecific protein 01B04 (other)
VHH: B1 VHH with I28D, V29F, H54K, G105R, Y108K
notes: as for B15

TDCC EC50 (EJM cells) [1]: 19.5 pM
Kd [2]: 19900 pM
B22: BCMA targeting trispecific protein 01B01 (other, not shown: large carriers; small tags and cut ends)
VHH: B1 VHH with V29P, H54E, G105R, Y108A
notes: trispecific

TDCC EC50 (EJM cells) [1]: 11 pM
Kd [2]: 15800 pM
B23: BCMA targeting trispecific protein 01A06 (other)
VHH: B1 VHH with V29F, S32R, H54F, L57V, G105R
notes: trispecific; not shown: the C-terminal 6xHis tag follows those missing domains and is left out

TDCC EC50 (EJM cells) [1]: 71.2 pM
Kd [2]: 21400 pM
B24: BCMA targeting trispecific protein 01F08 (other)
VHH: B1 VHH with V29T, I31V, H54P, G105T
notes: as for B17

TDCC EC50 (EJM cells) [1]: 48.4 pM
Kd [2]: 23900 pM
B25: BCMA targeting trispecific protein 01A09 (other, not shown: large carriers; small tags and cut ends)
VHH: B1 VHH with V29F, S32T, H54R, D101S, G105R
notes: trispecific

From patent publication US20240327534A1 (HARPOON THERAPEUTICS, published 2024)
